Measured values: publication PMC7081834

Target: Myc-PTEN wild type (human) (UniProt P60484)
Experiment: native gel or EMSA

stoichiometry N: 2
Substance: Myc-PTEN wild type, P60484 1-403 (natural protein; other documents disagree on this pair)
